The record followed here is paper PMC11157272, “Fructose-1-kinase has pleiotropic roles in Escherichia coli” (The Journal of Biological Chemistry, 2023).

One series addresses Cra (FruR), WT (Escherichia coli (gene from strain …, UniProt P0ACP1 1-334)). The series is described as follows: BLI; 100 nM Cra; BLI: 50 mM Hepes, 100 mM KCl, 0.1 mM EDTA, 10 mM MgCl2, 0.3 mM DTT, 0.1 mg/mL BSA, pH 7.0, about room temperature; concentrations as dimer. Conditions: protein: recombinant; tags: none; chain copies: 2; label: biotin. A general note: BLI is a label-free optical method that tracks binding on a fibre tip over time.

In series [1] the target is fructose-1-kinase (FruK), untagged, expressed from pET-3a and purified (E. coli), P0AEW9. The series is described as follows: atomic force microscopy; single-protein samples (FruK+DNA, Cra+DNA) in 50 mM Hepes, 100 mM KCl, 0.1 mM EDTA, 10 mM MgCl2, 0.3 mM DTT, pH 7.0, 60 min at room temperature, deposited on functionalised mica; molecular volumes converted to molecular weights.

For series [2], the target named is T1, catabolite repressor activator protein (WT Cra), untagged (E. coli), P0ACP1.
T1 chain: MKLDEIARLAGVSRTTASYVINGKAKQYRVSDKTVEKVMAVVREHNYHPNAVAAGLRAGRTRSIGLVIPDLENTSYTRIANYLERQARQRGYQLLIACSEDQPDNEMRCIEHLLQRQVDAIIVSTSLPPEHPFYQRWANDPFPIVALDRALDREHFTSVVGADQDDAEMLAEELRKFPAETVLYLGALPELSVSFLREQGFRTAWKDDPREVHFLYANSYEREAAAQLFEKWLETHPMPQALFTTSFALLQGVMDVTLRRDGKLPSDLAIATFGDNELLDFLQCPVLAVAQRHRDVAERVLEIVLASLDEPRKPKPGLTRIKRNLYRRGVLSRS
The experiment in a line: atomic force microscopy; Cra, FruK and 331 bp fruBKA promoter DNA mixed (20 nM Cra/20 nM FruK and 20 nM Cra/10 nM FruK), 50 mM Hepes, 100 mM KCl, 0.1 mM EDTA, 10 mM MgCl2, 0.3 mM DTT, pH 7.0, 60 min at room temperature, deposited on functionalised mica; DNA-bound and DNA-free particles; volumes converted to molecular weights and clustered.

Series [3] concerns the target T1, catabolite repressor activator protein …. The experiment in a line: BLI; equilibrium BLI (Octet RED96): biotinylated operator DNA on streptavidin tips, dipped into pre-equilibrated 2.5 nM Cra dimer plus varied FruK; 50 mM Hepes, 0.1 M KCl, 0.1 mM EDTA, 10 mM MgCl2, pH 7.0, 0.3 mM DTT, 0.1 mg/mL BSA; room temperature; global fit to Equation 2 with n assumed 1.
In series [4] the target is T2, His-tagged Cra (pET3a-Cra-C-His) for biolayer interferometry (E. coli), P0ACP1.
T2 chain: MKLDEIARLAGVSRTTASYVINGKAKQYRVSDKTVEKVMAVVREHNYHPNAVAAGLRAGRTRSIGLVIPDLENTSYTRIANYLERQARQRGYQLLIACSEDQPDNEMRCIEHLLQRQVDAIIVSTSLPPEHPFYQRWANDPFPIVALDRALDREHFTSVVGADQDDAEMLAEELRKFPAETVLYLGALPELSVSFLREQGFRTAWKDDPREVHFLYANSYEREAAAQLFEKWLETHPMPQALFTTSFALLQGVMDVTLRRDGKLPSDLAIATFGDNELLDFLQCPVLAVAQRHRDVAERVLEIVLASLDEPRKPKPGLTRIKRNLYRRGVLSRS
Described as above.

Series [5] concerns the molecule itself. The series is described as follows: atomic force microscopy; single-protein samples (FruK+DNA, Cra+DNA) in 50 mM Hepes, 100 mM KCl, 0.1 mM EDTA, 10 mM MgCl2, 0.3 mM DTT, pH 7.0, 60 min at room temperature, deposited on functionalised mica; molecular volumes converted to molecular weights.

B1: fruBproximal (dsDNA)
DNA 1: ATGCATGTTGTGTGGTTCTTGAAACGTTTCAGCTCACACAGGTCC
DNA 2: GGACCTGTGTGAGCTGAAACGTTTCAAGAACCACACAACATGCAT
modifications: 5' biotin
With B1, in the series with Cra (FruR), WT, the binding result was “binds”.

B2: fructose-1-kinase (FruK), untagged, expressed from pET-3a and purified, P0AEW9 1-312 (enzyme)
chain: MSRRVATITLNPAYDLVGFCPEIERGEVNLVKTTGLHAAGKGINVAKVLKDLGIDVTVGGFLGKDNQDGFQQLFSELGIANRFQVVQGRTRINVKLTEKDGEVTDFNFSGFEVTPADWERFVTDSLSWLGQFDMVCVSGSLPSGVSPEAFTDWMTRLRSQCPCIIFDSSREALVAGLKAAPWLVKPNRRELEIWAGRKLPEMKDVIEAAHALREQGIAHVVISLGAEGALWVNASGEWIAKPPSVDVVSTVGAGDSMVGGLIYGLLMRESSEHTLRLATAVAALAVSQSNVGITDRPQLAAMMARVDLQPFN
modifications: not checked
Turning to B2, the stoichiometry N – broadly, a count of units in the complex or per binding partner – in series [1] stood at 2. This molecule also registered a stoichiometry N (FruK homodimer per Cra homodimer) in series [2] of 1. Further, the dissociation constant Kd (commonly a measure of binding affinity in units of concentration) in series [3] turned out to be 2 nM; in series [4], 1.6 nM.

B3: His-tagged FruK (pET3a) for biolayer interferometry, P0AEW9 1-312 (enzyme)
chain: MSRRVATITLNPAYDLVGFCPEIERGEVNLVKTTGLHAAGKGINVAKVLKDLGIDVTVGGFLGKDNQDGFQQLFSELGIANRFQVVQGRTRINVKLTEKDGEVTDFNFSGFEVTPADWERFVTDSLSWLGQFDMVCVSGSLPSGVSPEAFTDWMTRLRSQCPCIIFDSSREALVAGLKAAPWLVKPNRRELEIWAGRKLPEMKDVIEAAHALREQGIAHVVISLGAEGALWVNASGEWIAKPPSVDVVSTVGAGDSMVGGLIYGLLMRESSEHTLRLATAVAALAVSQSNVGITDRPQLAAMMARVDLQPFN
modifications: not checked
As for B3, the dissociation constant (Kd) in series [3] was 2.1 nM.

B4: catabolite repressor activator protein (WT Cra), untagged (natural protein, E. coli, UniProt P0ACP1 1-334, looked up)
chain: MKLDEIARLAGVSRTTASYVINGKAKQYRVSDKTVEKVMAVVREHNYHPNAVAAGLRAGRTRSIGLVIPDLENTSYTRIANYLERQARQRGYQLLIACSEDQPDNEMRCIEHLLQRQVDAIIVSTSLPPEHPFYQRWANDPFPIVALDRALDREHFTSVVGADQDDAEMLAEELRKFPAETVLYLGALPELSVSFLREQGFRTAWKDDPREVHFLYANSYEREAAAQLFEKWLETHPMPQALFTTSFALLQGVMDVTLRRDGKLPSDLAIATFGDNELLDFLQCPVLAVAQRHRDVAERVLEIVLASLDEPRKPKPGLTRIKRNLYRRGVLSRS
notes: also called FruR; source: E. coli 3.300, constitutively over-expressed from pHG165a, in lysate; E. coli BLIM, constitutively expressed, purified (ammonium sulfate precipitation, phosphocellulose)
Turning to B4, in series [5], the “stoichiometry N” value worked out at 2.
